Data on one substance can be found in doi:10.1101/2021.12.31.474340.

The target in this experiment is guanylyl cyclase-A (GC-A), human, stably expressed in QBIHEK293A cells (human) (UniProt P16066). As to the kind of experiment: radioligand binding.
UniProt P16066, sequence (P16066 33-473): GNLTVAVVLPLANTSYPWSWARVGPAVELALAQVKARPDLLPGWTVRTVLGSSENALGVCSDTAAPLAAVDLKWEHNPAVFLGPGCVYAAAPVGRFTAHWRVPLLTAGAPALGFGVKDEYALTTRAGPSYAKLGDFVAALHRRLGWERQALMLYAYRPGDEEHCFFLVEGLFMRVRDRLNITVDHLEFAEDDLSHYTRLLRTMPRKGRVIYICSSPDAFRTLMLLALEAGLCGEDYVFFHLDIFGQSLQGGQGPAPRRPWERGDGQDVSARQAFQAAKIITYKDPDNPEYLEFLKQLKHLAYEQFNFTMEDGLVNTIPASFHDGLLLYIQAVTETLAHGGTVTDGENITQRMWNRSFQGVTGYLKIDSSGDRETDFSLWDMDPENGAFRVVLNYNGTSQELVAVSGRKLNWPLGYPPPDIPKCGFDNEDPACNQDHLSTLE

Regarding ^125I-ANP (peptide), the increase of binding with increasing concentrations of compound #20 was 71% and the increase of overall binding with 10 uM compound #20 against control is 60%.
